These results are taken from patent publication US20240287172A1 (SCIRHOM, published 2024).

Numbering of substitutions follows the chain as printed.

One assay addresses T1, hiR2-FL-D528I-T7 (human, UniProt Q6PJF5 1-856).
T1 sequence: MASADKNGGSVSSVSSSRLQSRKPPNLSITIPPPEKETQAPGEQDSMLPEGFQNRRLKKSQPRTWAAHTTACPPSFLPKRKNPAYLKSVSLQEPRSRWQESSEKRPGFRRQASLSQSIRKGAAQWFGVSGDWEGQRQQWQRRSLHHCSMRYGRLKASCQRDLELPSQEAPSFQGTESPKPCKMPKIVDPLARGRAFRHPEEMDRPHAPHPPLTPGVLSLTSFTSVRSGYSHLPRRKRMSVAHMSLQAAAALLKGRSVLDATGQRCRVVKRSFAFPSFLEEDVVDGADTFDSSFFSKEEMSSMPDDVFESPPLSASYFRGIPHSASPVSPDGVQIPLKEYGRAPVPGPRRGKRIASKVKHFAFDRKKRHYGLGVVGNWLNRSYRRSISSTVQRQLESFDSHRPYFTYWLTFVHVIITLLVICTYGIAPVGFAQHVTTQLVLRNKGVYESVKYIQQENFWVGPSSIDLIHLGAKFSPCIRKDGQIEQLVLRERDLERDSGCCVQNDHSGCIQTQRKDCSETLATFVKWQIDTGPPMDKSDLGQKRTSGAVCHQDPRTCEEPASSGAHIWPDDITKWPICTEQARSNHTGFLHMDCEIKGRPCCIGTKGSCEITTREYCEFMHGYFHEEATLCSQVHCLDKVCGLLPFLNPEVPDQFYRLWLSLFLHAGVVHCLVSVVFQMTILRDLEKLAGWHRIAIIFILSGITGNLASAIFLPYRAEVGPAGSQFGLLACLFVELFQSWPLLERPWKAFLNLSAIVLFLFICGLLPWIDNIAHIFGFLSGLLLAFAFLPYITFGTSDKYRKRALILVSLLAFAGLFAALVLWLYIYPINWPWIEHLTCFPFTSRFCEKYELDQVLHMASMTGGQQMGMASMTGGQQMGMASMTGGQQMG
The assay can be described thus: FACS, MEF-DKO cells, 3 µg/ml. Background: A flow cytometer gives signals particle by particle.

The target of the next assay is T2, hiR2-FL-WT-FLAG (human, UniProt Q6PJF5 1-856).
T2 construct: on MEF-DKO cells
T2 sequence: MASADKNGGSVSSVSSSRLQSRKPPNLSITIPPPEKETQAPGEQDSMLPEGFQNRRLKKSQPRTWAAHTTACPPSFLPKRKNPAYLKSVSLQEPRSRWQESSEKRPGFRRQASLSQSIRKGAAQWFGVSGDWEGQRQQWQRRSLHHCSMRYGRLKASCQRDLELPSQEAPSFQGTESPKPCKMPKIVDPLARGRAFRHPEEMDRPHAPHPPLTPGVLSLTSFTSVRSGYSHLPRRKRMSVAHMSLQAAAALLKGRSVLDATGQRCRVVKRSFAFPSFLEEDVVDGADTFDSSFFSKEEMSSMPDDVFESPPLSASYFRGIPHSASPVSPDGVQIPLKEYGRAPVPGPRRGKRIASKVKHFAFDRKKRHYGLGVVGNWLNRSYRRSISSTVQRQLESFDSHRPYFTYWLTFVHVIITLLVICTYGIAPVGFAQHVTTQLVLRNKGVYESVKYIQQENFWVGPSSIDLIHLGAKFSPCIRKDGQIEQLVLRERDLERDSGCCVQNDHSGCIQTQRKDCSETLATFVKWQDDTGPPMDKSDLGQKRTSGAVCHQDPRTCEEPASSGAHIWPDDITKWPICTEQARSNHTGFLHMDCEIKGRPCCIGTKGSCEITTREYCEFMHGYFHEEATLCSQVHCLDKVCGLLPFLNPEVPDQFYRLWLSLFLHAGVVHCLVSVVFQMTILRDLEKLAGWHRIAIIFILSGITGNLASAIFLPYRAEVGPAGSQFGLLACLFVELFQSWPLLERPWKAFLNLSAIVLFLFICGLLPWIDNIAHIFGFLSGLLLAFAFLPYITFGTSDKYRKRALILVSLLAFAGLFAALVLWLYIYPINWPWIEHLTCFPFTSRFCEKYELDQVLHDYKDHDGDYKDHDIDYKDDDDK
Description: FACS, MEF-DKO-hiR2-FL-WT-FLAG cells, 3 µg/ml. As to the method: In brief, immortalized MEF-DKO-EV control cells, MEF-DKO-hiR2-FL-WT-FLAG cells and MEF-DKO-miR2-FL-WT-FLAG cells were harvested with 10 mM EDTA in PBS, washed and resuspended in FACS buffer (PBS, 3% FBS, 0.05% sodium azide), and seeded in Nunc U-bottom 96-well plates (Thermo Fisher Scientific, USA) at approximately 3×10⁵ cells per well. To pellet cells and remove supernatants, the plates were centrifuged at 1,500 rpm and 4° C. for 3 minutes. For primary staining, cells were resuspended in 100 μl per well of either FACS buffer alone (controls), mouse monoclonal anti-FLAG IgG (Sigma-Aldrich, USA) at 3 μg/ml FACS buffer or the antibodies of the invention also at 3 μg/ml FACS buffer and incubated on ice for 1 hour. Afterwards, plates were centrifuged at 1,500 rpm and 4° C. for 3 minutes and washed twice with 200 μl per well of FACS buffer. For secondary staining, cells were spun down and resuspended in 100 μl per well of PE-conjugated goat anti-mouse IgG F(ab′)2 detection fragment (Dianova, Germany) diluted 1:100 in FACS buffer. Protected from light, the cell suspensions were incubated on ice for 1 hour. Plates were then centrifuged at 1,500 rpm and 4° C. for 3 minutes and washed three times with 200 μl per well of FACS buffer. Finally, cells were resuspended in 150 μl per well of FACS buffer and analyzed using a BD Accuri™ C6 Plus flow cytometer (Becton Dickinson, Germany).

B1: antibody 48 (antibody, V domains shown)
VH: QVQLQQSGTELVRPGTSVKVSCKASGYAFTNYLIEWVKQRPGQGLEWIGVINPGSGFTKYNEKFKGKATLTADKSSSTVYMHLSSLTSEDSAVYFCARGLYRAMDYWGQGTSVTVSS
VL: DIQMTQSPASQSASLGESVTITCLASQTIATWLAWYQQKPGKSPQLLIYGATTLADGVPSRFSGGGSGTKFSFKISSLQAEDFVSYYCQQLYSTPYTFGGGTKLEIK
notes: mouse IgG, kappa light chain; also called clone #48; purified antibody 48
As for B1, the “loss of binding vs wild type” value in the assay with hiR2-FL-D528I-T7 was at least 30%.

B2: antibody 47 (antibody, V domains shown)
VH: B1 VH with T9A, K59N, T69I, T71N, V79A, H82Q, S84I, G99D, Y101K, Y106H
VL: B1 VL with A30G, Y49H, G50A, T53S, G65S, L91I, T94S
notes: mouse IgG, kappa light chain; also called clone #47
Turning to B2, the binding result with hiR2-FL-WT-FLAG is reported as “binds”.

B3: antibody 50 (antibody, V domains shown)
VH: B1 VH with T9A, T16A, T30S, V79A, H82Q
VL: B1 VL with A30G, G50A, T52A, T53S, S85N, L91I
notes: mouse IgG, kappa light chain; also called clone #50; purified antibody 50
B3: the “loss of binding vs wild type” value in the assay with hiR2-FL-D528I-T7 was at least 30%.

B4: antibody 51 (antibody, V domains shown)
VH: QVQLQQSGAELVKPGASVKISCKASGYTFSNYWMNWVKQRPGKGLEWIGQIYPGDGDTKYNGKFKNKATLTADKSSSTAYMQFSSLTSEDSAVYFCARGDLVFVYWGLGTLVTVSA
VL: DVQITQSPSYLAVSPGETITINCRASKNIRKYLAWYQEKPGKTNKLLIYSGSTSQSGVPSRFSGSGSGTDFTLTISSLEPEDFAMYYCQQHNEYPYTFGGGTKLEIK
notes: mouse IgG, kappa light chain; also called clone #51
Consider B4, for which the binding result with hiR2-FL-WT-FLAG is recorded as “binds”.
